From patent publication US20230069835A1 (ACADEMIA SINICA, published 2023)

Target: T1, microsomal triglyceride transfer protein (MTTP), endogenous, in mouse intestinal epithelial cell lysates (mouse, UniProt O08601 22-894, limits assumed)
T1 construct: Endogenous protein in IEC or intestinal cell lysates of control, PRAP1-/- or E85V mice
T1 sequence (looked up): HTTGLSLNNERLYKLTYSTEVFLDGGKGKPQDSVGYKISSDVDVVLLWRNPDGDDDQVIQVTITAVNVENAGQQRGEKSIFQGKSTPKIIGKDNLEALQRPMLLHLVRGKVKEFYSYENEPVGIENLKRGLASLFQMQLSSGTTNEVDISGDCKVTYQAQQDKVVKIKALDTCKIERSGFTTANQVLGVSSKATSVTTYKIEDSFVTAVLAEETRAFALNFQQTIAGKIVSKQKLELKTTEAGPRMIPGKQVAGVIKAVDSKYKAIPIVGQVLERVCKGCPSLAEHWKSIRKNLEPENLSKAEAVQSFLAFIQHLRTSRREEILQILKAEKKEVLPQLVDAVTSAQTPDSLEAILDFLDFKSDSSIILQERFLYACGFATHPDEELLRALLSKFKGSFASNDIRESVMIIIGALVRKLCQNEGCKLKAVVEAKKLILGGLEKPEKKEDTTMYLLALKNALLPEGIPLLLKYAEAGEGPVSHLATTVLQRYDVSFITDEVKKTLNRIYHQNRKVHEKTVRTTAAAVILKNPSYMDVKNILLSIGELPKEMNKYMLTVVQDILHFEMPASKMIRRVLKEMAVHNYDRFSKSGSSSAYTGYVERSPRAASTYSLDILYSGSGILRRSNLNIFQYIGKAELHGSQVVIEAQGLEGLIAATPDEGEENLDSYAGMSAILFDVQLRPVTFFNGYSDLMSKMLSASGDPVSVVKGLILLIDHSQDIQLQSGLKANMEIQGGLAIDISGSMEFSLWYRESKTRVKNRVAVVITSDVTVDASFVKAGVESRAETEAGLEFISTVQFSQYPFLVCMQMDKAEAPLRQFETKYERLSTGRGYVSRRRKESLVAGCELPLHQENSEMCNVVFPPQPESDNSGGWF
Assay: co-immunoprecipitation from IEC lysates with PRAP1- or MTTP-specific antibody, immunoblot
Description: FIGS. 2A to 2H depict that PRAP1 formed a complex with microsomal triglyceride transfer protein (MTTP) and was involved in MTTP-mediated lipid transfer according to Example 2 of the present disclosure. FIG. 2A: Total intestinal cell lysates from control (WT), PRAP1^{-/-} (KO) or the E85V mutant mice (E85V) were immunoprecipitated with MTTP- or PRAP1-specific antibody, and the immune complexes (lanes 4-6) along with 1/50 input lysates as indicated were analyzed by immunoblotting using MTTP or PRAP1 antibodies. FIGS. 2B and 2C: Recombinant PRAP1 (rPRAR1, i.e., PRAP1ΔN20; designated as “rWT” in FIGS. 2B and 2C) stimulated the triglyceride (TG; FIG. 2B) and phospholipid (FIG. 2C) transfer activity of MTTP in the intestinal epithelial cells (IECs) purified from PRAP1^{-/-} mice. FIG. 2D: Immunoblotting analysis of MTTP expression in the intestinal cell lysates of control (PRAP1^{+/+}) or PRAP1^{-/-} mice. FIGS. 2E and 2F: MTTP-mediated transfer of TG (FIG. 2E) or phospholipid (FIG. 2F) was determined in PRAP1-deficient (PRAP1^{-/-}) IEC homogenates that had been pre-incubated with 10 μg of recombinant WT PRAP1 or the indicated mutant of PRAP1 (all without N-terminal 20 aa). […] N=3-4 for each panel. *, p<0.05; **, p<0.01; ***, p<0.001; n.s., p>0.05. FIGS. 2B, 2C, 2G and 2H: compared to the activity of PRAP1^{+/+} (bar 1). FIGS. 2E and 2F: compared to the activity in PRAP^{-/-} (bar 2). […]

binding result: no binding
B1: endogenous E85V mutant PRAP1 in intestinal epithelial cells of E85V knock-in mice (other)
chain: APAHQVPVKTKGKHVFPEQETEKVWDTRALEPLEKDNQLGPLLPEPKQKPAAAEEKRPDAMTWVVTEDILSHLRSPLQGPELDLDSIDHPMSDDVQDEEVPQSRPILYRQVLQGPEEDLDHLAHSMEDS
notes: Endogenous protein in lysates of PRAP1 E85V/E85V mice; The 20-aa signal peptide is called putative; also called E85V mutant of PRAP1; mouse E85V mutant PRAP1
